B1: Ribonuclease, P00648 (parent)
chain: MMKMEGIALKKRLSWISVCLLVLVSAAGMLFSTAAKTETSSHKAHTEAQVINTFDGVADYLQTYHKLPDNYITKSEAQALGWVASKGNLADVAPGKSIGGDIFSNREGKLPGKSGRTWREADINYTSGFRNSDRILYSSDWLIYKTTDHYQTFTKIR

Variants of: B1
Conditions: Bacillus amyloliquefaciens, 25 °C, Urea, NMR, NaCl 1 M, structure 1BNI, whole UniProt chain shown

## MMKMEGIALKKRLSWISVCLLVLVSAAGMLFSTAAKTETSSHKAHTEAQVINTFDGVADYLQTYHKLPDNYITKSEAQALGWVASKGNLADVAPGKSIGGNIFSNREGKLPGKSGRTWREADINYTSGFRNSDRILYSSDWLIYKTTDHYQTFTKIR [D101N]
pH 4.4, Sodium acetate 30 mM
  ddG of mutation (higher = less stable): 2.65 kcal/mol
  unfolding free energy: 5.48 kcal/mol
pH 8.9, Tris 30 mM
  ddG of mutation (higher = less stable): 2.32 kcal/mol
  unfolding free energy: 5.73 kcal/mol

## MMKMEGIALKKRLSWISVCLLVLVSAAGMLFSTAAKTETSSHKAHTEAQVINTFDGVADYLQTYGKLPDNYITKSEAQALGWVASKGNLADVAPGKSIGGDIFSNREGKLPGKSGRTWREADINYTSGFRNSDRILYSSDLLIYKTTDHYQTFTKIR [H65G W141L]
pH 5.9, MES 30 mM
  unfolding free energy: 8.11 kcal/mol
pH 8.9, Tris 30 mM
  ddG of mutation (higher = less stable): -0.33 kcal/mol
  unfolding free energy: 8.38 kcal/mol

## MMKMEGIALKKRLSWISVCLLVLVSAAGMLFSTAAKTETSSHKAHTEAQVINTFDGVADYLQTYHKLPDNYITKSEAQALGWVASKGNLADVAPGKSIGGDIFSNREGKLPGKSGRTWREADINYTSGFRNSDRILYSSDLLIYKTTDHYQTFTKIR [W141L]
pH 5.9, MES 30 mM
  unfolding free energy: 7.67 kcal/mol
pH 8.9, Tris 30 mM
  ddG of mutation (higher = less stable): 0.64 kcal/mol
  unfolding free energy: 7.41 kcal/mol

## MMKMEGIALKKRLSWISVCLLVLVSAAGMLFSTAAKTETSSHKAHTEAQVINTFDGVADYLQTYHKLPDNYIHKSEAQALGWVASKGNLADVAPGKSIGGNIFSNREGKLPGKSGRTWREADINYTSGFRNSDRILYSSDWLIYKTTDHYQTFTKIR [T73H D101N]
pH 4.4, Sodium acetate 30 mM
  ddG of mutation (higher = less stable): 5.74 kcal/mol
  unfolding free energy: 2.39 kcal/mol
pH 8.9, Tris 30 mM
  ddG of mutation (higher = less stable): 4.27 kcal/mol
  unfolding free energy: 3.78 kcal/mol

## MMKMEGIALKKRLSWISVCLLVLVSAAGMLFSTAAKTETSSHKAHTEAQVINHFDGVADYLQTYHKLPDNYITKSEAQALGWVASKGNLADVAPGKSIGGDIFSNREGKLPGKSGRTWREADINYTSGFRNSDRILYSSDWLIYKTTDHYQTFTKIR [T53H]
pH 4.4, Sodium acetate 30 mM
  ddG of mutation (higher = less stable): 2.65 kcal/mol
  unfolding free energy: 5.48 kcal/mol
pH 8.9, Tris 30 mM
  ddG of mutation (higher = less stable): 1.56 kcal/mol
  unfolding free energy: 6.49 kcal/mol

## MMKMEGIALKKRLSWISVCLLVLVSAAGMLFSTAAKTETSSHKAHTEAQVINTFDGVADYLQTYHKLPDNYITKSEAQALHWVASKGNLADVAPGKSIGGDIFSNREGKLPGKSGRTWREADINYTSGFRNSDRILYSSDWLIYKTTDHYQTFTKIR [G81H]
pH 4.4, Sodium acetate 30 mM
  ddG of mutation (higher = less stable): 2.6 kcal/mol
  unfolding free energy: 5.53 kcal/mol
pH 8.9, Tris 30 mM
  ddG of mutation (higher = less stable): 3.15 kcal/mol
  unfolding free energy: 4.9 kcal/mol

Source: FireProtDB (doi:10.1021/bi00123a006)
